These are literature values, as cited in paper PMC3166974.

As usually defined, the Kd is the equilibrium constant for the complex coming apart.

For one series, the target named is SecA (Escherichia coli) (UniProt P10408).
The target of another series is PKR (Homo sapiens) (UniProt P19525).

As for SecA (from UniProt P10408), the dissociation constant Kd with SecA (Escherichia coli) was 18.6 µM.

Consider PKR (from UniProt P19525), for which the equilibrium dissociation constant (Kd) with PKR (Homo sapiens) was 500 µM.
